We go through 1 protein from publication PMC3985465.

The target of the data set is L′LKAAμ thiopeptide (thioleucine-Leu-Lys-Ala-Ala-7-methoxycoumarin-4-ylalanine). The data set is described as follows: stopped-flow fluorescence kinetics. Particulars: other: stopped-flow fluorescence kinetics (global fit to a three-step scheme).

B1: Papain (crude, from papaya latex) (protein)
chain: IPEYVDWRQKGAVTPVKNQGSCGSCWAFSAVVTIEGIIKIRTGNLNEYSEQELLDCDRRSYGCNGGYPWSALQLVAQYGIHYRNTYPYEGVQRYCRSREKGPYAAKTDGVRQVQPYNEGALLYSIANQPVSVVLEAAGKDFQLYRGGIFVGPCGNKVDHAVAAVGYGPNYILIKNSWGTGWGENGYIRIKRGTGNSYGVCGLYTSSFYPVKN
Turning to B1, the “KS (enzyme-substrate complex, first step of the three-step scheme)” value is recorded as “KS = k1/k–1 = 921 μM”.
